Reference: patent US7910100B2, “Antibodies directed to the mammalian EAG1 ion channel protein” (Max-Planck-Gesellschaft zur Forderung der Wissen, priority 2004, dated 2011)

T1: Eag1 in rat brain sections (Rattus norvegicus, UniProt Q63472)
T1 construct: from tissue; host or cells: brain (cerebellum, hippocampus) of postnatal-day 21 Sprague Dawley rats
T1 sequence (Q63472 1-962): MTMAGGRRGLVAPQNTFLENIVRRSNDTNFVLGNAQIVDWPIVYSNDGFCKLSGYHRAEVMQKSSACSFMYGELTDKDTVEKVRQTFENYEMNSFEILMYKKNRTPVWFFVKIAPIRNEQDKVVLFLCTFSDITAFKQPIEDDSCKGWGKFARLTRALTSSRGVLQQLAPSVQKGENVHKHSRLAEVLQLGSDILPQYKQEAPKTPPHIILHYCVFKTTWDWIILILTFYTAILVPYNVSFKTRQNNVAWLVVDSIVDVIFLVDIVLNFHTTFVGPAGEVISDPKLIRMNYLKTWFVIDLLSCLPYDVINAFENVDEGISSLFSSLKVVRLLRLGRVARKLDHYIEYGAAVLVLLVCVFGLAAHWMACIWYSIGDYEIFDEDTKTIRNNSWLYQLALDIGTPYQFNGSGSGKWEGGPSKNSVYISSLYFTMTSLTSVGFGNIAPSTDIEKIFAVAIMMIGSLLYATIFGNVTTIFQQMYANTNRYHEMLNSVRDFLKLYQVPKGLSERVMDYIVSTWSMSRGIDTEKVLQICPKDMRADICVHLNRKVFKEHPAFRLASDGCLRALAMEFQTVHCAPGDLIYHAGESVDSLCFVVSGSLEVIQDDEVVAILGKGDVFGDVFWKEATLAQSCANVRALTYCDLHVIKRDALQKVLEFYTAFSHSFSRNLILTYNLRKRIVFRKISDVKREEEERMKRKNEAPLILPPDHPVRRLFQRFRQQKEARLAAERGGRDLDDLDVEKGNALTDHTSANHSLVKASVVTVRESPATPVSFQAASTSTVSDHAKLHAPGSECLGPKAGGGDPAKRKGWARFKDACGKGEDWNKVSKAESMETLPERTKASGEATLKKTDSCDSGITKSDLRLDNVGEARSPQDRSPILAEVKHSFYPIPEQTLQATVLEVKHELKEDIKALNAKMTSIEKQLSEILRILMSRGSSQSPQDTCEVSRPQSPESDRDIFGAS

B1: ImAb1: mouse monoclonal anti-Eag1 antibody; VL SEQ ID NO: 43, VH SEQ ID NO: 44; binds C-terminus of Eag1 (antibody, listed as Mus musculus)
heavy: MNFGFSLIFLVLVLKGVQCEVKLVESGGGLVKPGGSLKLSCAASGFTFSNYAMSWVRQTPEKRLEWVASISSDGDTYFPDNVKGRFTISRENAGNILFLQMSSLRSEDTAMYYCARGFMITFWGQGTLVTVSAAKTTPPSVYPLAPGCGDTTGSSVTLGCLVKGYFPESVTVTWNSGSLSSSVHTFPALLQSGLYTMSSSVTVPSSTWPSQTVTCSVAHPASSTTVD
light: MDMRAPAQFFGILLLWFPGIRCDIKMTQSPSSMYASLGERVTITCKASQDIKSYLSWYQQKPWKSPKILIYYATSLADGVPSRISGSGSGQDYSLTISSLESDDTATYYCLQHGESPYTFGGGTKLEIKRADAAPTVSIFPPSSEQLTSGGASVVCFLNNFYPKDINVKWKIDGSERQNGVLNSWTDQDSKDSTYSMSSTLTLTKDEYERHNSYTCEATHKTSTSPIVKSFNRNEC
B2: ImAb4: mouse monoclonal anti-Eag1 antibody, IgG2b kappa; light chain SEQ ID NO: 2, heavy chain SEQ ID NO: 4 (antibody, listed as Mus musculus)
heavy: MRVLILLWLFTAFPGILSDVQLQESGPGLVKPSQSLSLTCTVTGYSITSDYAWNWIRQFPGNKLEWMGYISYSGSTIYNPSLKSRISITRDTSKNQFFLQLNSVTTEDTATYYCARFGNYGNTLNYWGQGTSVTVSSAKTTPPSVYPLAPGCGDTTGSSVTLGCLVKGYFPESVTVTWNSGSLSSSVHTFPALLQSGLYTMSSSVTVPSSTWPSQTVTCSVAHPASSTTVDKKLEPSGPISTINPCPPCKECHKCPAPNLEGGPSVFIFPPNIKDVLMISLTPKVTCVVVDVSEDDPDVQISWFVNNVEVHTAQTQTHREDYNSTIRVVSTLPIQHQDWMSGKEFKCKVNNKDLPSPIERTISKIKGLVRAPQVYILPPPAEQLSRKDVSLTCLVVGFNPGDISVEWTSNGHTEENYKDTAPVLDSDGSYFIYSKLNMKTSKWEKTDSFSCNVRHEGLKNYYLKKTISRSPGK
light: MKLPVRLLVLMFWIPASSSDVVMTQTPLSLPVSLGDQASISCRSSQSLVHSNGNTYLHWYLQKPGQSPKLLIYKVSNRFSGVPDRFSGSGSGTDFTLKISRVEAEDLGVYFCSQSTHVPPTFGGGTKLEIKRADAAPTVSIFPPSSEQLTSGGASVVCFLNNFYPKDINVKWKIDGSERQNGVLNSWTDQDSKDSTYSMSSTLTLTKDEYERHNSYTCEATHKTSTSPIVKSFNRNEC

How the values were obtained:
[1] = tested on: Eag1 peptides (pore domain / CAD domain of immunogen); assay: Epitope mapping on SPOT cellulose membrane with 76 overlapping peptides; assay type: binding; settings: 76 overlapping 13 mer peptides, shift 2 aa; antibody diluted 1:2000
[2] = target: T1, Eag1 in rat brain sections; assay: Immunohistochemistry of rat brain sections (cerebellum, hippocampus); assay type: binding; settings: ImAb1 4 μg/ml, ImAb4 2 μg/ml, overnight 4° C.
Procedure: Cross-reactivity of anti-Eag1 antibodies of the invention were further analysed by Immunohistochemistry studies of rat brain sections of the cerebellum and the hippocampus. For the IHC, two postnatal-day 21 Sprague Dawley rats were anesthetized with a mixture of ketamine HCl (Ketaset; 100 mg/ml; Fort Dodge Laboratories, Inc., U.S.A.) and xylazine (Rompun; 20 mg/ml; Mile, Inc., U.S.A.) at 0.1 ml/100 g body weight. The animals were transcardially perfused with a fixative consisting of 4% p-formaldehyde in 0.12 M phosphate buffer (pH 7.2). After perfusion, brains were removed, fixed for an additional hour at 4° C., rinsed three times with PBS and stored overnight at 4° C. Coronal and sagital sections (40-50 μm) were cut in cold PBS using a vibratome (Leica, Vienna, Austria). Slices were incubated for 1 h with 10% normal goat serum in PBS, then with anti-Eag1 antibodies ImAb1 (4 μg/ml) and ImAb4 (2 μg/ml) in PBS overnight at 4° C. and processed using the avidin/biotin-peroxidase system (Vectastain kit, Vector Laboratories, Burlingame, Calif.). Antibody binding was visualized using 3′-3-diaminobenzidine tetrahydrochloride (DAB; DAB substrate kit for peroxidase, Vector Laboratories). […] Sections were analysed with a Zeiss Axiophot microscope.

Eag2 = assay: BIAcore cross-reactivity with Eag family member Eag2; assay type: binding; settings: 10 μg/ml antibody, flow rate 20 μl/min; chip coated with Eag2 equivalent regions
Procedure: In order to analyse cross-reactivity of anti-Eag1 antibodies of the invention with the most homologous Eag family member Eag2 a BIAcore™ binding analysis was performed. BIAcore chips were coated with Eag1 C-terminus (amino acids 694 to 962), the H5 region (amino acids 374 to 452) or Eag2 (the equivalent regions fused in a single construct). The interaction with anti-Eag1 antibodies ImAb1 and ImAb3 were analysed using 10 μg/ml antibody at a flow rate of 20 μl/min.

[3] = tested on: Eag1 overexpressing CHO K1 cells; assay: Internalization of Cy3-labelled antibodies, immunofluorescence on living cells; assay type: cell-based; settings: Cy3-labelled antibody; for binding to Eag1 antigen on living cells: overnight; for internalization into cells: within 24 h
Procedure: In order to analyse the internalization properties of the anti-Eag1 antibodies of invention, CHO cells were grown on coverslips and incubated in normal medium (Ham's F12, 10% FCS) overnight (37 C, 5% CO2) with anti-Eag1 antibodies ImAb1 and ImAb4 directly labeled with Cy3 (100 μg). Cultures were thereafter incubated with app. 2 μg/ml Hoechst 33342 for 10 min.

IPC-298 melanoma cells = assay: Soft agar assay IPC-298 with secondary immunotoxin Mab-ZAP; assay type: cell-based, human; settings: 2.5 ng antibody with 100 pg Mab-ZAP, 10 days
Procedure: For comparison Mab-ZAP was pre-incubated with 2.5 ng control IgG. After 30 min pre-incubation, 2000 IPC-298 cells in OptiMEM with 20 mM KCl were added and further incubated at 37° C. for 30 min. IPC-298 cells, pre-incubated with immunotoxin-labelled anti-EAG1 antibody, were resuspended in 50 μl/well 0.25% Difco noble agar containing OptiMEM with 0.5% FCS and plated on 50 μl/well 0.5% agarose underlayer containing OptiMEM with 0.5% FCS in quadruplicates. Additionally, 50 μl/well 0.25% feeding agar containing OptiMEM with 0.5% FCS was plated. Colonies were allowed to form for 10 days and were stained with 50 μl MTT (1 mg/ml in PBS) for 1.5 hours. Wells were scanned using an Epson scanner and colonies were counted using the Scion Image software.

Molecule	peptide spots bound (epitope) [1]	cross-reactivity with rat (IHC staining) [2]	cross-reactivity with Eag2 (Eag2)	binding to Eag1 antigen on living cells [3]	internalization into cells [3]	inhibition of anchorage independent cell growth (IPC-298 melanoma cells)
B1	bound weakly to peptides 21-24	cross-reacts with other mammalian species such as rat	do not cross-react with Eag2	bind to Eag1 antigen on living cells expressing the antigen	are internalized into the cells	–
B2	bound at spots 3-8	cross-reacts with other mammalian species such as rat	–	bind to Eag1 antigen on living cells expressing the antigen	are internalized into the cells	inhibits anchorage independent tumor cell growth
